Values belong to the binder of their own block, whether it stands above or below them.
Key:
Recombinant Ded1-His [1] = target: T1, Recombinant Ded1-His (Saccharomyces cerevisiae, UniProt P06634 1-604); assay: co-IP; as a3, but SRP14, SRP21, SRP54 and Sec65 incubated together with Ded1; recovered with Ded1-specific IgG beads; settings: both partners purified
T1 construct: Ded1, DEAD-box RNA helicase of budding yeast, expressed from the pET22b plasmid; also called purified Ded1

Recombinant Ded1-His [2] = target: T1, Recombinant Ded1-His; assay: co-IP; purified Ded1 (4 µg) incubated with one purified SRP protein (4-6 µg), no RNA, 1x PBS with 2 mM MgCl2, 45 min, 30 °C; recovered with Ded1-specific IgG cross-linked to protein A-Sepharose beads; SDS-PAGE, Coomassie blue; settings: both partners purified

T1 sequence (P06634 whole entry): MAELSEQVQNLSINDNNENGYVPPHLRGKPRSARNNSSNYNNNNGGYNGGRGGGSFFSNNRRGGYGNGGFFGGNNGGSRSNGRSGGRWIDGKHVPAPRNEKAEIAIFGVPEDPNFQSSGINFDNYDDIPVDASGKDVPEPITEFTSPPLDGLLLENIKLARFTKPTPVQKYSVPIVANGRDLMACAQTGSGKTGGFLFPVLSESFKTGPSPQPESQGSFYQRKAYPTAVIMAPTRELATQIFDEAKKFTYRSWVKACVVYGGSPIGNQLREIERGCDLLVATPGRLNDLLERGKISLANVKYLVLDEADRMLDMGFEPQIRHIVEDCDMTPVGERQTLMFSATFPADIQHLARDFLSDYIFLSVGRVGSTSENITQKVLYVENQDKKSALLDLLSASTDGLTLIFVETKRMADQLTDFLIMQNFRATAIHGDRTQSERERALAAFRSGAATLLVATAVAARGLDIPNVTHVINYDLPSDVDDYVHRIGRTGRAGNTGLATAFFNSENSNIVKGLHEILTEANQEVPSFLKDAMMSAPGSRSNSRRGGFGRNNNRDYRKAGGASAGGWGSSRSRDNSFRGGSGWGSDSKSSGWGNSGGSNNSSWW

binding result (Recombinant Ded1-His [1]): binds
B1: His-tagged SRP14 (natural protein, yeast (S. cerevisiae), UniProt P38985 1-146, looked up)
chain: MANTGCLSPGAFLSKVPEFFQTANEKHITVRLTAKRLIEHDPVEGNLEFDSTNHPDYDVSKKASEISVSSRSDREYPLLIRMSYGSHDKKTKCSTVVKASELDQFWQEYSSVFKGGMQNLIKKKKKKSKNGTISKTGKKNKVAKKN
notes: SRP14 of yeast, subcloned into the NdeI and XhoI sites of pET22b; source: E. coli Rosetta (DE3), purified (Ni-NTA)

binding result (Recombinant Ded1-His [2]): binds
B2: His-tagged Sec65 (natural protein, yeast (S. cerevisiae), UniProt P29478 1-273, looked up)
chain: MPRLEEIDDFNDIDDLDMELAELDPSLRTPIAPKITPKVVRSQDQENPAFLPGTNNNSNSNNNSSNEKEQLSFINPKTGKVERSEAISKKDLEEVKRFQVLYPCYFDINRSHKEGRRVPKELAVENPLAKTMADAVRELGILCIFEGEKCHPQDFGNPGRIRVLFKENGQLIGAATKFKGGKRQLMKAVGEYMKRHPTTIESLREIPYGPDFDNIEFKKIPRVKGFKMNEIVPLHSPFLMGHPMTKSVYETPKITAAEKSFKPPKNKYKVVRR
notes: Sec65 of yeast, cloned into the XhoI and BamHI sites of pET19b; source: E. coli Rosetta (DE3), purified (Ni-NTA)

— paper PMC11206880, “The RNA Helicase Ded1 from Yeast Is Associated with the Signal Recognition Particle and Is Regulated by SRP21” (Molecules, 2024)
